Consider 18 sequences from the DeepSol protein solubility set.

The series can be described thus: soluble on expression in E. coli; label from the status in PepcDB or PDB records.
Take “MPLGLFSSGKAQVLCDEKIPGGKKKEPKQLSENKCKGVTLKLDHTRVTIEKQIAEGGFAIVYVASDRKNNKFALKRQFTKDNEKQLEACCREHSFLKQCIGHKNIVEFVDSYTNCLGNGIWECMLLTEYHQKNVLQLMNERISQNQYLTNDEILSIFTDLCEAVSFIHNRPQPIIHRDLKVENVLISSHKPPHYVLCDFGSATTQILSVEKYGVEYVKSEVERNTTMCYRSPEMIDFYSGLEIGLKSDIWALGVLLYRLCFFCVPFEESPLAIQSVNYQFPSVPNIPDEIKVLIYMLLDIDVNRRPSIYQTSVLAFEANHRKPLSEEIQNKKCTDAVPSLKSCIQLMRDGSNPRNKRDSSPRNPEAPPIQSSSKMASLSQQVPSISNISMPSGSGTVETSVAPRLRPKATTVVPNVPSISPVPPVGLPHLRLPSKGSTDETDGSQVRKVPIDFHHRQSFSGEEQLKPAAEADSAGPLSCPLIKPTDLGFTDLDKPALPRDRAQTDGKRRLPHESDIIFQQQHRRNVSDTSQISRSAFKPYSSQQTTSKTSSQVVRSVEDMSQRQNGGSGEWNPFLVAPFSNNSISRKDGQESAFMMDDSHFGMVFDEIRRKEIPAELDSETSSIDSRDPFGAAPFDQLTVSTSSSAQPVSLPPGSVHLHTSIAPSPLLRHVLTKAPPPVPRRTTSRGFQV”: the “soluble on expression in E. coli” value is on record as “not soluble”.

Consider “MPLLCALIVGGLFGTSQAQAGGFMVPTTNTAGWGRAMAGGSLFPNDPSAAFNNPAAMAFIDKRIAQLTVNYADIDIKYNGDAYDYQGNPMTGGYQDGPGTPELGTNDGGQAGFGAWLPTGFLVVPINDRFAFGLSQVVPMGMRSTWDPNWKGRDFAVDTKIETIGLTGSLSFKVNDNFSLGAGVIIQRTSGFVSQNLDLYASAANSPGMGGIPFPASNSSALMRVKVDNTSPGFFAGAVWKPTDRDTLGFAYHAKIRNKLKGHYNLYDHDGGLTEGAIEGGTPGLAYPGLDLRMGASASARLDIPAYASLDWVHQFNDRLSLGASATWTEWSSFQDLTLKSHGNTIVSIPYTYRNTWTLAVGGDYKVTDQWTMRAGVAYDQTPTHNATRDPRIPDGDRYFASLGAGYRFQSMPELSIDAAYSRQFVKEVPLKTVNQDRLGGGRLDGRATSKGQVFSLSATYDF”, for which the “soluble on expression in E. coli” value is “not soluble”. For “MPLLSVIIPFGLSKERPYIEERVLQKAKFFQSDENIEFIFVEGYSSKDHELKNFIQANHHIYLKDMDQKAFSQGRCRNLGASYAHSNVLLFLDVDCYISLDNFEKILKLIQIKNISQNINALIVLPVVYLNKEANEKLKQYDDKFWDILIQEDLFTAKNTWVKFFAPSSTSSIVINKHQFLRLGGNDENFIGHGYEDFDLFARILKACVSFEKMPTNLSYDARNWNFFNFKGFRSWFSLLGYEACFYGIYIYHFYHIEPNQNAYMQNKDKNHQLFYKHLKNIKKHDLKPLQVFKAKGEKVLMLFKDQNYDFKDISVYVGEIIYKNISDFFIAKELKYELLLDFLQQEKITKIFLDASIKLQFNGIDYCDIFYFQKGILPHSWFFAKKLDLGYKQDLNLSEQKLYQVKEYFLTLKEDEKKVILDFLSQNNDDKYDLYKMLYYLINELYSFEHDGIFYQIIIDKEKMLIAQKHDKSFYPLRSFVYKPYLHELKSIRPFSFLMKILGLEYLGAMISHTKFYRLARKLFFNPKGFFEDFNYKIMKGKI”, the “soluble on expression in E. coli” value is “not soluble”. Consider “MPLPDFHVSEPFTLGIELEMQVVNPPGYDLSQDSSMLIDAVKNKITAGEVKHDITESMLELATDVCRDINQAAGQFSAMQKVVLQAATDHHLEICGGGTHPFQKWQRQEVCDNERYQRTLENFGYLIQQATVFGQHVHVGCASGDDAIYLLHGLSRFVPHFIALSAASPYMQGTDTRFASSRPNIFSAFPDNGPMPWVSNWQQFEALFRCLSYTTMIDSIKDLHWDIRPSPHFGTVEVRVMDTPLTLSHAVNMAGLIQATAHWLLTERPFKHQEKDYLLYKFNRFQACRYGLEGVITDPHTGDRRPLTEDTLRLLEKIAPSAHKIGASSAIEALHRQVVSGLNEAQLMRDFVADGGSLIGLVKKHCEIWAGD”, for which the “soluble on expression in E. coli” value was “soluble”.

Regarding “MPLPYDKEKKLWKVTGWYLESSEETGEVMQSKQIAFEGYTNEENFANRQRVSVFKSFYESGNLKSIYHYNAQNKRDGKAETYFDEKDKIAETLTFKDGQPEGEYIVYHENGAVESKRYFAQGKIKDGECPHFYDNGVLKQKHSYLNQKLEGPAFEYFPDGKIKGKYSYSKGTIVGTSTEYYSTGKIRGVYHRNNQGENDGTFEQYSEEGKLLSKATYKNGKQLSAQSWYENGHPKEESSFDSEGRKHGAVKEWFSNGKPASSKMYKHDVLDGDFEKWYENGHRESVYPYKNGMLNGDAKHWNEQGKLTYTTEYKDDKKQGADRRWSERTGKLVEEVMFANDERNGLKREFNDRTGKVLSALPYVDGDKEGTEEAYDEDGIKYIRCYHNDEELSELYAPTDVTNKAKQGDSTAQYHLGKYEFECTNYDAAMKWLTQSAEQNHPGALLFLAYAYNDGDGVAQDSKKYLSYLFKAAELGESDAQLEVGYLNLIGEGMPKNLPEAYKWIKKSADQGNAQAHYNLGLMYRNGDGVEKDLNKAKLHLTAAVKGGVKPALAALKELTPQTKLEHHHHHH”, the “soluble on expression in E. coli” value is “not soluble”.

As to “MPLSPLDIHNKEFTRGFRGYDEDEVNDFLDQIIKDYEQVIKEKKRIEDTLNNSEERLGHFTNIEETLNKSLIVAQTAAEEVKASAEKEAKLIIREAEKNADRILSDSLSKARKIAIEIEDLKRQSKVFRERLRMLVEAQMDLIKSEDWQQMMAYDVDATELASIKEVESAESEER”, the “soluble on expression in E. coli” value is “not soluble”. As for “MPLTPLDIHNKEFTRGFRGYDEDEVNEFLDQIIKDYEAVLREKKELFDRVTDLDEKLEHFQNIEETLNKSILVAQESAEEVRRNAQKEAQLIVKEAEKNADRIINDALAKSRKIMLEMEELKKQASVYKMRFKMLIEAQLEMLNTDDWDEVTEDSGDERSEEYAE”, the “soluble on expression in E. coli” value is “not soluble”. In the case of “MPLVSVVMPVYNSAATLGAAVRSVLTQTHGDLELLVTDDQSSDGSMDLLREFAAQDERVLPRSSPERGGAGRARNLAIERARGDYVAFLDSDDMWLPEKTEKQLAFAAEGTAPLTFTSYFKMDADHDGESTDWVPNGRVIRAREHVDYRAMLVQDHIGALTAMYDRNVLGTRLMPEMRKRQDYALWLSIMRDGADARGLAEPLAVYRAHQAGSLSSNKLSLVEYNWALYREHENLSVPRATRALAGAVWQSLRNSRILEHHHHHH”, the “soluble on expression in E. coli” value was “not soluble”. Take “MPLVVFCGLPYSGKSRRAEELRVALAAEGRAVYVVDDAAVLGAEDPAVYGDSAREKALRGALRASVERRLSRHDVVILDSLNYIKGFRYELYCLARAARTPLCLVYCVRPGGPIAGPQVAGANENPGRNVSVSWRPRAEEDGRAQAAGSSVLRELHTADSVVNGSAQADVPKELEREESGAAESPALVTPDSEKSAKHGSGAFYSPELLEALTLRFEAPDSRNRWDRPLFTLVGLEEPLPLAGIRSALFENRAPPPHQSTQSQPLASGSFLHQLDQVTSQVLAGLMEAQKSAVPGDLLTLPGTTEHLRFTRPLTMAELSRLRRQFISYTKMHPNNENLPQLANMFLQYLSQSLH”: the “soluble on expression in E. coli” value is recorded as “soluble”. In the case of “MPMISCDMAYGRTDEQKRALSAGLLRVISEATGEPRENIFFVIREGSGINFVEHGEHLPDYVPGNANDKALIAKLK”, the “soluble on expression in E. coli” value is recorded as “soluble”. As for “MPMKDISDFAANDPNKDYCVYCSRPDGEMQSFEEKKESLTKFIVKTQGADENVAWKIAENMMHKLPAWKEYFN”, the “soluble on expression in E. coli” value is given as “not soluble”.

“MPNVIGVQFQKAGKLEYYTPNDIQVDIDDWVVVESKRGIEIGIVKNPLMDIAEEDVVLPLKNIIRVADDKDIDKFNCNERDAENALILCKDIVREQGLDMRLVNCEYTLDKSKVIFNFTADDRIDFRKLVKILAQHLKTRIELRQIGVRDEAKLLGGIGPCGRSLCCSTFLGDFEPVSIKMAKDQNLSLNPTKISGACGRLMCCLKYENDYYEEVRAQLPDIGEAIETPDGNGKVVALNILDISMQVKLEGHEQPLEYKLEEIETMHLEHHHHHH”: the “soluble on expression in E. coli” value is on record as “not soluble”. Turning to “MPPCYPFMLSWKGWARDSPGRPGGAMRAHIITYGCQMNEYDSHLVASELVSLGWELVDSVEEADFVLVNTCAVRGKPVEKVRSLLGQLRKEKERRGLLIGMMGCLAQLDEGQQMAKKFGVDVLLGPGALTSLPEALKANERFWDLTFREDVLDYIPPPPKGALSAHVTIIRGCNHHCTYCIVPTTRGPEVSRHPDLILKEIELLKQAGVVEVTLLGQNVNSYGKDQPGFPSFAELLRMVGGMGIPRVRFLTSHPVNFTDDIIEAIAETPAICRYIHLPVQSGSDRVLRRMAREYRRAHYLERIRKIREALPDAVLSTDIIVGFPGETEEDFQETLSLYDEVGYDQAYMFIYSPRPGTPAYKHFQDLPREVKVERLMRLIEKQKEWSYRRNLEWVGKTVEVLVRGEAKEEGFVQGHDRGNHPVLVPASQAPVPGLYQVEIKQATPHLLFGEVVGAEAPAPIPLPVA”, the “soluble on expression in E. coli” value is given as “soluble”.

In the case of “MPPFMSGLRAVSSLLSCRNAISRKLVSRSGIPRGSFVSDQIRRFGSLSGVERCSSNWLMSNDDARVSFRRLPGSVSLLQRRHFLGCGDGEEGGGELSKIYEERRVLGYTPEQMFNVVAAVDLYHGFVPWCQRSEVLKEYPDGSFDAELEIGFKFLVESYISHVESERPKWIKTTARDTGLFDHLINLWQFKPGPIPGTCDLHFHVDFKFNSPLYRQVASMFFKEVASRLVGAFSDRCRLVYGPGVRVDENAYEQRA”, the “soluble on expression in E. coli” value is recorded as “soluble”. With “MPPLPEKVQSHRATPIQSSGVSALPLVEYHAPGSDRLAIMISGDGGWRTLDRNLSKELQRRGISVVGWNSLRYFWKLRTPEQLGDDLSRVIADYQRRWGAHQVILIGYSFGADVMPFAYAHLMPTQRNGVDFISLLALGRKADFKARIFGWLGWGEHGTRDVLTALGALDLHRVQCIYGQNDKDAVCPELRERIFDVVMRPGGHHFDGDTVKLADAILQGWQRRIELREPRNADSPR”, the “soluble on expression in E. coli” value is reported as “not soluble”. With “MPPVVPCHCTQCRKWSGHFWAATSVAMADFRLVRDEGLRWFRASDTASRGFCALCGSSLSWKPDGRDRMSFSPGAVDGPTGLATGHHIFMDEAGDYCRVSDGTPHYPGDDEA”, the “soluble on expression in E. coli” value is recorded as “not soluble”.

Regarding “MPQEKMARLYNLNYTIASQVNPHVVPFMQSDASRYRKDILSWPQRILRRQGKVISLGIMDFTRERLGNVPPVRRLLDHGYGIVGQRYYGDVNIIAPFNLRQYAYMLQNPRPHLFKLLQQQGERATWPKISAIETHARIGKTIQHCIEVLDYQKNRYIQAEKASALEHHHHHH”, the “soluble on expression in E. coli” value was “not soluble”. As for “MPQYKGSREVISIHVGQAGVQIGNACWELFCLEHGIQPDGYHVEDDTYDEETETINTFFAETAGGKHVPRCLFVDLEPTVVDEVRTGTYRSLFHPEQLLSGKEDAANCYARGRYTIGREMIDVVMDRVKRLAENCNGLQGFVIFHSFGGGTGSGFLSLLMERLSTEYGKKPKLEFAIYPAPQVSTSMVEPYNSILMTHTTLEHSDCTFMVDNEAIYDICRRNLDLARPTYTNLNRLVAQIISSITASLRFEGALNVDLTEFQTNLVPYPRIHFPLVTYAPLVSAERASHEQNTVSDMTHACFEPGYQMVKCDPRRGKYMAVCLLYRGDVVPKDINSAIAAVKTKRTVQFVEWCPTGFKVGINYQPPTVVPGGDLGKQTRSVCMISNTTAIAEAWARLDHKFDLMYAKRAFVHWYVGEGMEEGEFSEAREDMAALEKDYEEIGEDELPDDIDDQSYRGRSSGSRY”, the “soluble on expression in E. coli” value was “not soluble”.
